{"source": "patent US20260234276A1", "binders": {"B1": {"name": "3-27 (antibody, V domains shown)", "VH": "EVKLVESGGGLVKSGGSLKLSCAASGFTFSSYAMSWVRQTPEKRLEWVASINSGGSIYYPDSVKGRFTISRDNARNILYLQMSSLRSEDTAMYYCARGFGAYWGQGTLVTVSA", "VL": "DIQMTQSPSSLSASLGERVTLTCRASQDIGSSLHWLQQEPDGTIKRLIYATSSLDSGVPKRFSGSRSGSDYSLTISSLESEDFVDYYCLQYATSPTFGGGTKLEIK"}}, "biological_target": "human CCR8 (human) (UniProt P51685)", "assay": "flow cytometry, hCCR8 transfected CHOK1 cells", "data": [{"binder": "B1", "values": [{"measurement": "% positive cells", "value": 42.5, "unit": "%"}, {"measurement": "MFI fold change to isotype ctrl", "value": 2.76, "unit": "fold"}]}]}
